Test results: article PMC8748450

Molecular target: apo-LgnD-C1-T1-C2 tridomain (truncated LgnD)
Assay: ITC; LgnA (125 µM) titrated into LgnD or truncated LgnD (25 µM), also into LgnB (concentrations for LgnB not told); thirteen 3 µL injections, 25 °C; one set binding model; MicroCal PEAQ-ITC

Q: “LgnA, type II thioesterase (TEII) orthologue (enzyme)” was tested. Which Kd did it give?
A: The Kd was 1700 nM.
